Test results published in the nanobody polyreactivity screen of Harvey et al. (2022).

Test: yeast display, Sf9 membrane polyspecificity reagent, FACS + sequencing; frameworks hold sequencing errors
Outline: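 Galactose induction of a Saccharomyces cerevisiae BJ5465 synthetic nanobody display library ran 36–48 hours. The cells were then stained for 1 hour at 4 °C with 10% biotinylated, detergent-solubilized Sf9 membrane reagent, pulled down on streptavidin microbeads and FACS-sorted into low and high (top ~1%) gates on expression and reagent-binding fluorescence. Labels for polyreactivity follow the gate of origin.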
With “QVQLQESGGGLVQAGGSLRLSCAASGTISDRAGMGWYRQAPAKNAIVATIDRGTNTNYADSVKGRFTISRVNAKNTVYLQMNSLKPEDTAVYNCAADGRYYIYLDYWGQGTQVTVSS” the “polyreactivity (PSR sort gate)” value was “low polyreactivity”. For “QVQLQESGGGLVQAGGSLRLSCAASGTISPLPAMGWYRQAPGKEREFVAGIDTGAITNYADSVKGRFTISRDNAKNTVYLQMNSLKPEDTAVYYCAVFPAAYDYDERYYTYWGQGTQVTVSS”, the “polyreactivity (PSR sort gate)” value was “low polyreactivity”. For “QVQLQESGGGLVQAGGSLRLSCAASGTISQEDCMGWYRQATGKQREFVAAIGLGSNTNYADSLKGRFTISRDNAKNTVYLLMNSLKPEDTAVYYCAVSVWQYSDHVYRGQGTQVTVSS”, the “polyreactivity (PSR sort gate)” value was “low polyreactivity”. In the case of “QVQLQESGGGLVQAGGSLRLSCAASGTISQEDWMGWYRQAPGKEREFVAAIGLGSNTNYADSLKGRFTISRDNAKKTVYLQMNSLKPEDTAVYYCAVSVWQYSDHVYRGQGTQVTVSS”, the “polyreactivity (PSR sort gate)” value is reported as “low polyreactivity”. For “QVQLQESGGGLVQAGGSLRLSCAASGTISYAPHMGWYRQAPGKERELVAGITIGGTTYYADSVKGRFTISRDNANNTVYLQMNSLSPGDTAVYYCAAHSEQYTPFYYWGQGTQVTVSS”, the “polyreactivity (PSR sort gate)” value was “low polyreactivity”. With “QVQLQESGGGLVQAGGSLRLSCAASGTISYPRTMGWYRQAPGKEREFVAGIGVGGTTYYADSVKGRFTISRDNAKYTVYLQMNILKPEDAAVYYCAVAAYYDKYYVYWGQGTQVTVSF” the “polyreactivity (PSR sort gate)” value was “low polyreactivity”. In the case of “QVQLQESGGGLVQAGGSLRLSCAASGTMSDRPGMGWYRQAPAKNAIVATIDRGTNTNYADSVKGRFTISRDNAKNTVSLQMNSLKPEDSAVYNCAAVGRYYFSLDYWGPGTQVTVSS”, the “polyreactivity (PSR sort gate)” value is reported as “low polyreactivity”. For “QVQLQESGGGLVQAGGSLRLSCAASGYISHAVEMCWYRQAPGKEHELVASISNGGSTNYADSVKGRFTISRDNAKNTVYLQMNSLKSEDTAVYYCAGWTGQVDIHYYWGQGTQVTVSS”, the “polyreactivity (PSR sort gate)” value was “low polyreactivity”. In the case of “QVQLQESGGGLVQAGGSLRLSCAASGYISQSSVMGWYRQAPGKEREFVASISYGATTYYADSVKGRFTISRDNAKNTVYLQTNSPKPEDTAVYYCAVLVKRGFSHRYWGQGTQVTVSS”, the “polyreactivity (PSR sort gate)” value is reported as “high polyreactivity”. In the case of “QVQLQESGGGLVQAGGSLRLSCAASGYISTFSAEMGWYRQAPGKERELVASIAPGCTTSYADSVKGRFTISRDNAKNTVYLQMNSLKPEDTAVYYCAVDYTLPASFGYWGQGTQVTVSS”, the “polyreactivity (PSR sort gate)” value is reported as “high polyreactivity”. With “QVQLQESGGGLVQAGGSLRLSCAASGYISTFSSEMGWYRQAPGKERELVASIAPGCTTSYADSVKGRFTISRDNAKNTVYLQMNSLKPEDTAVYYCAVGNGLSRYVYGDYDYWGQGTQVTVSS” the “polyreactivity (PSR sort gate)” value was “high polyreactivity”. With “QVQLQESGGGLVQAGGSLRLSCAASRNISGSSDLGWYHQAPGKEREFVASITSGGTTYYADSVKGRFTISRDNAKNTVYLQMNSLKPEDTAVYYCAVGDPADAEFGYWGQGTQVTVSS” the “polyreactivity (PSR sort gate)” value was “low polyreactivity”. In the case of “QVQLQESGGGLVQAGGSLRLSCAGTGNIIDADFMRWYRQAPGKERELAASSTEGGSTNYAESVKSRFTISRDNANNTVYLQMNSLKPEVTAVYYCAAIAYPYIPTYFDYDSDYFYWGQGTQVTVSR”, the “polyreactivity (PSR sort gate)” value is reported as “high polyreactivity”. In the case of “QVQLQESGGGLVQAGGSLRLSCAPSGSISRYYDMGWYRQAPGKEREYVAGISGGAITYYADSVKGRFTISRDNAKNTVYLQMNSLKPEDTAVYYCAADTCVYQYHSYWGQGTQVTVSS”, the “polyreactivity (PSR sort gate)” value is reported as “low polyreactivity”. For “QVQLQESGGGLVQAGGSLRLSCTASGTIYSTSAMGWYRQAPGKDREFVADIASGASTNYADSVKGRFTISRDNAKNTVYLQMNSLKPEDTAVYYCAAKRIRRRYKYDYWGQGTQVTVSS”, the “polyreactivity (PSR sort gate)” value was “high polyreactivity”. With “QVQLQESGGGLVQAGGSLRLSGAASGSISSRDAMGWYRQAPGKEREFVATIASGTTTYYADSVKGSFTISRDNAENTVYLQTNSLKPEDTAVYYCAAPTIQIYPFYYWGQGTQVTVSS” the “polyreactivity (PSR sort gate)” value was “high polyreactivity”. For “QVQLQESGGGLVQAGGSLRLSSAASGSISSRDAMGWYRQAPGKEREFVATIASGTTTYYADSVKGSFTISRDNAENTVYLQTNSLKPEDTAVYYCAAPTIQIYPFYYWGQGTQVTVSS”, the “polyreactivity (PSR sort gate)” value was “high polyreactivity”. For “QVQLQESGGGLVQAGGSLRLSSAASGTISVHATMGWYRQAPGKERELVAGITDGANTYYADSVKGRFTISRDNSKNTEYLQMNSLKPEDTAVYYCAAYYGTVVHFTYWGQGTQVTVSS”, the “polyreactivity (PSR sort gate)” value was “low polyreactivity”. In the case of “QVQLQESGGGLVQAGGSLRLTCAASGTISDSGLMGWYRQAAGKERELVAGISSGGITNYADSVKGRFTISRDNAKNTVYLQMNSLIPEDTAVYWGQGTQVTVSS”, the “polyreactivity (PSR sort gate)” value is reported as “low polyreactivity”. For “QVQLQESGGGLVQAGGSLRMSCAASGSIFYVYGMGWYRQAPGKERELVAGINAGTNTNYADSVRGRFTISRDNAKNTVHLQMKSLKPEDTAVYYCAADGNGYQADEYWGQGTQVTVSS”, the “polyreactivity (PSR sort gate)” value was “high polyreactivity”. With “QVQLQESGGGLVQAGGSLRMSCAASGSISHYIFMGWYRQAPGKEREFVAGIGYGGTTNYADSVKVRFTISRDNAKNTVYLQMNRLKPEDTAMYYCAAREATEFYLYYWGQGTQVTVSS” the “polyreactivity (PSR sort gate)” value was “low polyreactivity”. In the case of “QVQLQESGGGLVQAGGSLSLSCAESGTISFTRDMVWYRQAPGKEREFVASIDRGASTYYADSVKGRFTISRDNAKNTVYLQMNSLKPEDSAVYYKAVIAPFYSSFAYWGQGTQVTVSS”, the “polyreactivity (PSR sort gate)” value is reported as “high polyreactivity”. In the case of “QVQLQESGGGLVQAGGSQRLSCAASGSISILQSRGCYRQAPGKERELVAGINWGATTYYADSVKGRLTTSRDYAKNTVYLQMNSLKPEDTAVYYCAVPTYYTYPLLYWGQGTQVTVSS”, the “polyreactivity (PSR sort gate)” value is reported as “low polyreactivity”. For “QVQLQESGGGLVQAGGSQRLSCAASGYIIYFQYMGWYRQAPRKEREFVAAISDGANTNYADSVKGRFTISRDNAKNTVYLQMNSLKPEDTAVYYCAVYADENYYYIYWGQGTQVTVSS”, the “polyreactivity (PSR sort gate)” value was “low polyreactivity”. For “QVQLQESGGGLVQAGGSQRLSSAASGYNFYFQYMGWYRQAPGKEREFVAAISDGANTNNADSVKGRFTISRDNAKNTEYLQMNSLKPEDSAVYYCAVYADDNYYYIYWGQGTQVTVSS”, the “polyreactivity (PSR sort gate)” value was “low polyreactivity”. In the case of “QVQLQESGGGLVQAGGTITLGYDMGWYRQAPGKEREFVAGIDTGAITYYADSVKGRFTNSRDNAKNTVYLQMNCLKPEDTAVYYCAAIQTHTYAHSYWGQGNQVTVSS”, the “polyreactivity (PSR sort gate)” value is reported as “high polyreactivity”. In the case of “QVQLQESGGGLVQAGGTITLGYDMGWYRQAPGKEREFVAGIDTGAITYYADSVKGRFTNSRDNAKNTVYLQMNSLKPEDTAVYYCAAILTHTYAHSYWGQGTQVTVSS”, the “polyreactivity (PSR sort gate)” value is reported as “high polyreactivity”. For “QVQLQESGGGLVQAGGTLRLSCAASGSFSADEDMGWYRQAQGKEREFVAGISVGGNTNYADSVKGRFTISRENAKNTVYLQINSLKPEDTAVYYCAVLQDVYDALDYWAQGTQVTVSS”, the “polyreactivity (PSR sort gate)” value was “high polyreactivity”. For “QVQLQESGGGLVQAGVSLRLSCAASGSIFADVQMGWYRQAPGKERELVASIIFRGTTTYYADSVKGRFTISRDNAKNTVYLQMSSLKPEDTAVYYCAVGRSEGGDFAYWGQGTHVTVSS”, the “polyreactivity (PSR sort gate)” value was “low polyreactivity”. With “QVQLQESGGGLVQASGSLRLSCAASGNIFPDYLMGWYRLAPGKEREFVANITGGSTTNYADSVKGRFTISRDNATNTVYLQMNSLKPEDTAVYYCEVNFGTVVLYLYWGQGTQVTVSS” the “polyreactivity (PSR sort gate)” value was “high polyreactivity”. With “QVQLQESGGGLVQEGGSLRLSCAASGNISPPADMGWYRQAPGKERELVASIGTGGTTNYADSVKGRCTISRDNAKNTVYLQMNSLKPDDTAVYYCAAVRYEYNPYDYWGQGTQVTVSS” the “polyreactivity (PSR sort gate)” value was “low polyreactivity”. With “QVQLQESGGGLVQVGGSLRLSCAASGTIFIYGFLGWNRQAPGKERELVASINLGGITNYADSVKGRFTISRDNAKNTVYLQMISLKPEDTAVYYCAAYVVTGQNYGYWGQGTQVTVSC” the “polyreactivity (PSR sort gate)” value was “low polyreactivity”. In the case of “QVQLQESGGGLVQVGGSLRLSCAASGTIFIYGFLGWNRQAQGKELELVASINLGGITNYADSVKGRFTISRDNAKNTLYLQMISLKTEDTAVYYCAAYVVTGQNYGYWGQGTQVTVSS”, the “polyreactivity (PSR sort gate)” value is reported as “low polyreactivity”. For “QVQLQESGGGLVQVGGSLRLSCAASGTIIIYGFLGWNRQAPGKERELVASINLGGITNYADSVKGRFTISRDNAKNTVYLQMISLKPEDTAVYYCAAYVVTGQNYGYWGQGTQVTVSS”, the “polyreactivity (PSR sort gate)” value was “low polyreactivity”. With “QVQLQESGGGPVLAGGSLRLSCAASGTIFVPLDMGWYRQAPGKEREFVATIGSGSSTYYADSVKGSFTISRDNVKNTVYLQMNSLKPEDTAVYYCAVSAAEQSRHYYWDQGTQVTVSS” the “polyreactivity (PSR sort gate)” value was “low polyreactivity”. In the case of “QVQLQESGGLVQAGGSLRLSCAASGSISGRNVMGWYRQAPGKEREFVASITDGSSTNYADSVKGRVTISRDNAKNTVYLQMNSLKPKDTAVYYCAAYAQRAKSFGYWGRGTQVTVSS”, the “polyreactivity (PSR sort gate)” value is reported as “low polyreactivity”. With “QVQLQESGGRLEQAGGSLRPSCAASGSISDGVPMRWNRQAPGEERELVATTVLGATTNYADSVKGRFTISRGNAKHTVYLQMNSLKPEETAVYYCAARLRYDKGFSYWGQGTQVTVSS” the “polyreactivity (PSR sort gate)” value was “low polyreactivity”. For “QVQLQESGGVLEQARGSLRLSCAASGFIFARNYMGWYSQAPGKERELVAGIGVGAITNYADSVKGRFTISRDNAKNTVYLQMNSLETEESAVYYCAVGDTVLGYHYYWGQGTQVTVSN”, the “polyreactivity (PSR sort gate)” value was “low polyreactivity”. With “QVQLQESGGVLVQAGGSLRQSYAASGYIFPSLAMGWYRQAPGKEREFVAAIGRGSTNNYADSVKGRFTISRDNAKNTAYQQMNSLKPEDTAVYYCAAAASPLTRHLYWGQGTQVTVSS” the “polyreactivity (PSR sort gate)” value was “low polyreactivity”. With “QVQLQESGSGLVQAGGSLRLSCAAIGAIFPAYLMGWYRQAPGKERELVAGISYGSITYCADSVKGRFNISRDNAKNTVYLQMNSLKPEYTAVYYCAVWRPGGDEYYYWGQGTQVTVSS” the “polyreactivity (PSR sort gate)” value was “low polyreactivity”. With “QVQLQESGVGLVQAYGSLRLSCAAIGSIFGYYYMGSYRQAPGKDRELVATINICGITNYADSVKGRFTISRDNAKYTVYLQMKSLKRDDTAVFYCAADEYAQRDLGYWGQGTQVTVSS” the “polyreactivity (PSR sort gate)” value was “low polyreactivity”.
